Measured values reported in US20200155602A1 (IMMATICS BIOTECHNOLOGIES, published 2020).

target: T1, HLA-A*02:01 (human); experiment: UV-ligand exchange, anti-b2m ELISA; grade of peptide exchange yield (>10% = +; >20% = ++; >50 = +++; >75% = ++++)
T1 construct: Peptide-receptive HLA-A*02:01 monomer obtained by UV cleavage of a UV-sensitive ligand; captured on streptavidin plates; also called peptide-receptive MHC molecules; MHC class I
Excerpt: Candidate peptides for T cell based therapies according to the present invention were further tested for their MHC binding capacity (affinity). The individual peptide-MHC complexes were produced by UV-ligand exchange, where a UV-sensitive peptide is cleaved upon UV-irradiation, and exchanged with the peptide of interest as analyzed. Only peptide candidates that can effectively bind and stabilize the peptide-receptive MHC molecules prevent dissociation of the MHC complexes. To determine the yield of the exchange reaction, an ELISA was performed based on the detection of the light chain (β2m) of stabilized MHC complexes. The assay was performed as generally described in Rodenko et al. (Rodenko et al., 2006).
96 well MAXISorp plates (NUNC) were coated over night with 2 ug/ml streptavidin in PBS at room temperature, washed 4× and blocked for 1 h at 37° C. in 2% BSA containing blocking buffer. Refolded HLA-A*02:01/MLA-001 monomers served as standards, covering the range of 15-500 ng/ml. Peptide-MHC monomers of the UV-exchange reaction were diluted 100-fold in blocking buffer. Samples were incubated for 1 h at 37° C., washed four times, incubated with 2 ug/ml HRP conjugated anti-β2m for 1 h at 37° C., washed again and detected with TMB solution that is stopped with […]. Absorption was measured at 450 nm. Candidate peptides that show a high exchange yield (preferably higher than 50%, most preferred higher than 75%) are generally preferred for a generation and production of antibodies or fragments thereof, and/or T cell receptors or fragments thereof, as they show sufficient avidity to the MHC molecules and prevent dissociation of the MHC complexes.

FLFPAFLTA and ALASAPTSV cannot be ordered by peptide exchange yield: > 75% for the first, > 75% for the second.

ALMAGCIQEA and AQLNIGNVLPV cannot be ordered by peptide exchange yield: > 75% for the first, > 75% for the second.

First: SLFPYVVLI
Second: VLYGDVEEL
The peptide exchange yield of the first is higher: > 75% for the first, 50 to 75% for the second.

ALEEANADLEV and QLIEKITQV fall in the same range of peptide exchange yield: 50 to 75% for the first, 50 to 75% for the second.

First: YIDPYKLLPL
Second: QLLQYVYNL
The peptide exchange yield of the first is lower: 50 to 75% for the first, > 75% for the second.

ILFDEVLTFA and TLNDGVVVQV cannot be ordered by peptide exchange yield: > 75% for the first, > 75% for the second.

Compared with GLHQDFPSVVL, STASAITPSV is lower in peptide exchange yield: 50 to 75% for the first, 20 to 50% for the second.

First: ALPEPSPAA
Second: MLFENMGAYTV
The peptide exchange yield of the first is lower: 50 to 75% for the first, > 75% for the second.

Compared with SLRAFLMPI, VLDEGLTSV is higher in peptide exchange yield: 20 to 50% for the first, > 75% for the second.

First: GLYGIKDDVFL
Second: LMAPAPSTV
The peptide exchange yield of the first is higher: > 75% for the first, 50 to 75% for the second.

First: YVMESMTYL
Second: SLQERQVFL
The peptide exchange yield of the first is higher: > 75% for the first, 50 to 75% for the second.

First: VLAENPDIFAV
Second: SLDGNPLAV
The peptide exchange yield of the first is lower: 50 to 75% for the first, > 75% for the second.
